Data on 14 variants can be found in the supplement of paper PMC12783771.

To fix the notation:
B1: library; numbered along this chain (parent)
chain: MNIQIGELAKRTACPVVTIRFYEQEGLLPPPGRSRGNFRLYGEEHVERLQFIRHCRSLDMPLSDVRTLLSYRKRPDQDCGEVNMLLDEHIRQVESRIGALLELKHHLVELREACSGARPAQSCGILQGLSDCVCDTRGTTAHPSD

In data set [1] the parent is B1. The data set can be described thus: sfGFP reporter fluorescence (15 h) (µM FITC); higher = higher leak. As to conditions: library round: Round 0; ligand: none. In a few lines: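 With 1 µM lead chloride, 30 µM zinc acetate or no metal present, 1 μL Echo-assembled reactions were incubated 15 hr at 30 °C. They contained BL21 Star (DE3) PANOx-SP extract, 30 μg/mL GamS, the pPbrR-sfGFP reporter plasmid and PCR-made linear PbrR templates Echo-normalized to 5 nM. Endpoint sfGFP fluorescence was read on a Synergy Neo2 at 485/528 nm against FITC standards in 50 mM sodium borate pH 8.5. Results are expressed as µM FITC.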

Data set [2] covers variants of B1. The data set can be described thus: sfGFP reporter fluorescence (15 h) (µM FITC); higher = stronger transcriptional activation. The conditions noted are these: library round: Round 0. On the procedure:
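Cell-free (BL21 Star DE3 extract, PANOx-SP) biosensing: 1 µL Echo-assembled reactions with linear PbrR variant templates (5 nM) and pPbrR-sfGFP reporter, with 1 µM Pb (lead chloride), 30 µM Zn (zinc acetate) or no ligand; endpoint sfGFP fluorescence after 15 h at 30 °C, calibrated as µM FITC. Round 0 library (alanine scan, site saturation, combinatorial) of PbrR from Cupriavidus metallidurans; 2 biological replicates.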

± gives the standard deviation of the averaged measurements.

Turning to MNIQIGELAKRTACPVVTIRFYEQEGLLPPPGRSRGAFRLYGEEHVERLQFIRHCRSLDMPLSDVRTLLSYRKRPDQDCGEVNMLLDEHIRQVESRIGALLELKHHLVELREACSGARPAQSCGILQGLSDCVCDTRGTTAHPSD [N37A], the sfGFP reporter fluorescence in data set [1] was found to be 0.0634 ± 0.001; in data set [2] (ligand: 1 µM Pb), 0.0729 ± 0.0042; in data set [2] (ligand: 30 µM Zn), 0.481 ± 0.007.

For MNIQIGELAKRTACPVVTIRFYEQEGLLPPPGRSRGNARLYGEEHVERLQFIRHCRSLDMPLSDVRTLLSYRKRPDQDCGEVNMLLDEHIRQVESRIGALLELKHHLVELREACSGARPAQSCGILQGLSDCVCDTRGTTAHPSD [F38A], the sfGFP reporter fluorescence was 0.064 ± 0.0039 in data set [1], 0.0634 ± 0.0026 in data set [2] (ligand: 1 µM Pb) and 0.379 ± 0.015 in data set [2] (ligand: 30 µM Zn).

Regarding MNIQIGELAKRTACPVVTIRFYEQEGLLPPPGRSRGNFALYGEEHVERLQFIRHCRSLDMPLSDVRTLLSYRKRPDQDCGEVNMLLDEHIRQVESRIGALLELKHHLVELREACSGARPAQSCGILQGLSDCVCDTRGTTAHPSD [R39A], the sfGFP reporter fluorescence came out at 0.0651 ± 0.0018 in data set [1], 0.0599 ± 0.0029 in data set [2] (ligand: 1 µM Pb) and 0.0678 ± 0.0021 in data set [2] (ligand: 30 µM Zn).

As to MNIQIGELAKRTACPVVTIRFYEQEGLLPPPGRSRLNFRLYGEEHVERLQFIRHCRSLDMPLSDVRTLLSYRKRPDQDCGEVNMLLDEHIRQVESRIGALLELKHHLVELREACSGARPAQSCGILQGLSDCVCDTRGTTAHPSD [G36L], the sfGFP reporter fluorescence in data set [1] worked out at 0.0588 ± 0.00078; in data set [2] (ligand: 1 µM Pb), 0.0621 ± 0.00078; in data set [2] (ligand: 30 µM Zn) it was 0.114 ± 0.011.

Regarding MNIQIGELAKRTACPVVTIRFYEQEGLLPPPGRSRWNFRLYGEEHVERLQFIRHCRSLDMPLSDVRTLLSYRKRPDQDCGEVNMLLDEHIRQVESRIGALLELKHHLVELREACSGARPAQSCGILQGLSDCVCDTRGTTAHPSD [G36W], the sfGFP reporter fluorescence in data set [1] was determined as 0.0579 ± 0.0057; in data set [2] (ligand: 1 µM Pb), 0.0601 ± 0.0062; in data set [2] (ligand: 30 µM Zn) it was 0.104 ± 0.0042.

As to MNIQIGELAKRTACPVVTIRFYEQEGLLPPPGRSRMNFRLYGEEHVERLQFIRHCRSLDMPLSDVRTLLSYRKRPDQDCGEVNMLLDEHIRQVESRIGALLELKHHLVELREACSGARPAQSCGILQGLSDCVCDTRGTTAHPSD [G36M], the sfGFP reporter fluorescence in data set [1] was 0.0612; in data set [2] (ligand: 1 µM Pb), 0.0667 ± 0.0031; in data set [2] (ligand: 30 µM Zn), 0.236 ± 0.028.

MNIQIGELAKRTACPVVTIRFYEQEGLLPPPGRSRYNFRLYGEEHVERLQFIRHCRSLDMPLSDVRTLLSYRKRPDQDCGEVNMLLDEHIRQVESRIGALLELKHHLVELREACSGARPAQSCGILQGLSDCVCDTRGTTAHPSD [G36Y]: the sfGFP reporter fluorescence in data set [1] worked out at 0.0605 ± 0.0026; in data set [2] (ligand: 1 µM Pb) it was 0.0691 ± 0.0023; in data set [2] (ligand: 30 µM Zn) it was 0.275 ± 0.031.

On to MNIQIGELAKRTACPVVTIRFYEQEGLLPPPGRSRQNFRLYGEEHVERLQFIRHCRSLDMPLSDVRTLLSYRKRPDQDCGEVNMLLDEHIRQVESRIGALLELKHHLVELREACSGARPAQSCGILQGLSDCVCDTRGTTAHPSD [G36Q], for which the sfGFP reporter fluorescence is 0.0592 ± 0.0029 in data set [1], 0.0676 ± 0.0023 in data set [2] (ligand: 1 µM Pb) and 0.3562 ± 0.0026 in data set [2] (ligand: 30 µM Zn).

For MNIQIGELAKRTACPVVTIRFYEQEGLLPPPGRSRTNFRLYGEEHVERLQFIRHCRSLDMPLSDVRTLLSYRKRPDQDCGEVNMLLDEHIRQVESRIGALLELKHHLVELREACSGARPAQSCGILQGLSDCVCDTRGTTAHPSD [G36T], the sfGFP reporter fluorescence was 0.06469 ± 0.00026 in data set [1], 0.08943 ± 0.00052 in data set [2] (ligand: 1 µM Pb) and 0.866 ± 0.074 in data set [2] (ligand: 30 µM Zn).

Take MNIQIGELAKRTACPVVTIRFYEQEGLLPPPGRSRNNFRLYGEEHVERLQFIRHCRSLDMPLSDVRTLLSYRKRPDQDCGEVNMLLDEHIRQVESRIGALLELKHHLVELREACSGARPAQSCGILQGLSDCVCDTRGTTAHPSD [G36N]: the results for the sfGFP reporter fluorescence in data set [1], in data set [2] (ligand: 1 µM Pb) and in data set [2] (ligand: 30 µM Zn) were 0.064 ± 0.0018, 0.09 ± 0.006 and 1.41 ± 0.29, respectively.

On to MNIQIGELAKRTACPVVTIRFYEQEGLLPPPGRSRSNFRLYGEEHVERLQFIRHCRSLDMPLSDVRTLLSYRKRPDQDCGEVNMLLDEHIRQVESRIGALLELKHHLVELREACSGARPAQSCGILQGLSDCVCDTRGTTAHPSD [G36S], for which the sfGFP reporter fluorescence in data set [1] worked out at 0.0706 ± 0.00078; in data set [2] (ligand: 1 µM Pb), 0.119 ± 0.021; in data set [2] (ligand: 30 µM Zn) it was 2.69 ± 0.06.

In the case of MNIQIGELAKRTACPVVTIRFYEQEGLLPPPGRSRVNFRLYGEEHVERLQFIRHCRSLDMPLSDVRTLLSYRKRPDQDCGEVNMLLDEHIRQVESRIGALLELKHHLVELREACSGARPAQSCGILQGLSDCVCDTRGTTAHPSD [G36V], the sfGFP reporter fluorescence in data set [1] stood at 0.06011 ± 0.00052; in data set [2] (ligand: 1 µM Pb) it was 0.0711 ± 0.00052; in data set [2] (ligand: 30 µM Zn), 0.322 ± 0.011.

Take MNIQIGELAKRTACPVVTIRFYEQEGLLPPPGRSRPNFRLYGEEHVERLQFIRHCRSLDMPLSDVRTLLSYRKRPDQDCGEVNMLLDEHIRQVESRIGALLELKHHLVELREACSGARPAQSCGILQGLSDCVCDTRGTTAHPSD [G36P]: the sfGFP reporter fluorescence in data set [1] was 0.05937 ± 0.00052; in data set [2] (ligand: 1 µM Pb), 0.0583 ± 0.001; in data set [2] (ligand: 30 µM Zn), 0.0627 ± 0.0036.

As to MNIQIGELAKRTACPVVTIRFYEQEGLLPPPGRSRRNFRLYGEEHVERLQFIRHCRSLDMPLSDVRTLLSYRKRPDQDCGEVNMLLDEHIRQVESRIGALLELKHHLVELREACSGARPAQSCGILQGLSDCVCDTRGTTAHPSD [G36R], the sfGFP reporter fluorescence in data set [1] came to 0.0597 ± 0.0015; in data set [2] (ligand: 1 µM Pb), 0.0656 ± 0.0026; in data set [2] (ligand: 30 µM Zn), 0.247 ± 0.0088.
